The source of these data is IntAct's records for PubMed 12628189.

B1: Protein TEM1 (Saccharomyces cerevisiae), P38987 (parent)
chain: MATPSTGANNSIPAVRNQVEVQVGLVGDAQVGKTSLMVKYVQNIYDKEYTQTLGVNFLKRKVSIRSTDIIFSIMDLGGQREFINMLPIATVGSSVIIFLFDLTRPETLSSIKEWYRQAYGLNDSAIPILVGTKYDLLIDLDPEYQEQISRTSMKYAQVMNAPLIFCSTAKSINIQKIFKIALAKIFNLTLTIPEINEIGDPLLIYKHLGGQQHRHHNKSQDRKSHNIRKPSSSPSSKAPSPGVNT
partner: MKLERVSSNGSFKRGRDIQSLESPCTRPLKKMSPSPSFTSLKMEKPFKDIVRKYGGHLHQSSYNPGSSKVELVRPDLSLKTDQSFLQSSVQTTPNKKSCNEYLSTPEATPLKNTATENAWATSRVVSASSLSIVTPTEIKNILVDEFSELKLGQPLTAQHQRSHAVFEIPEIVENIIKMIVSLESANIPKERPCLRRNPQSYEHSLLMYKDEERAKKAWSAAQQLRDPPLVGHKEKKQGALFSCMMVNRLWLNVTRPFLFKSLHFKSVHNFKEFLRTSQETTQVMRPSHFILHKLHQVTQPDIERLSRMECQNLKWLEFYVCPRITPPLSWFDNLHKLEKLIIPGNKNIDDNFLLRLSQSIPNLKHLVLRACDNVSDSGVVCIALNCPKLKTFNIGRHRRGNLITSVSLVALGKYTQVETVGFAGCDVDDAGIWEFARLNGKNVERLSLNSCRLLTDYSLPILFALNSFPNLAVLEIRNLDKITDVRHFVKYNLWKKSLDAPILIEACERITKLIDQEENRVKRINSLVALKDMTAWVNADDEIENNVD
B2: Protein TEM1 (Saccharomyces cerevisiae), P38987 (parent)
chain: B1 chain
partner: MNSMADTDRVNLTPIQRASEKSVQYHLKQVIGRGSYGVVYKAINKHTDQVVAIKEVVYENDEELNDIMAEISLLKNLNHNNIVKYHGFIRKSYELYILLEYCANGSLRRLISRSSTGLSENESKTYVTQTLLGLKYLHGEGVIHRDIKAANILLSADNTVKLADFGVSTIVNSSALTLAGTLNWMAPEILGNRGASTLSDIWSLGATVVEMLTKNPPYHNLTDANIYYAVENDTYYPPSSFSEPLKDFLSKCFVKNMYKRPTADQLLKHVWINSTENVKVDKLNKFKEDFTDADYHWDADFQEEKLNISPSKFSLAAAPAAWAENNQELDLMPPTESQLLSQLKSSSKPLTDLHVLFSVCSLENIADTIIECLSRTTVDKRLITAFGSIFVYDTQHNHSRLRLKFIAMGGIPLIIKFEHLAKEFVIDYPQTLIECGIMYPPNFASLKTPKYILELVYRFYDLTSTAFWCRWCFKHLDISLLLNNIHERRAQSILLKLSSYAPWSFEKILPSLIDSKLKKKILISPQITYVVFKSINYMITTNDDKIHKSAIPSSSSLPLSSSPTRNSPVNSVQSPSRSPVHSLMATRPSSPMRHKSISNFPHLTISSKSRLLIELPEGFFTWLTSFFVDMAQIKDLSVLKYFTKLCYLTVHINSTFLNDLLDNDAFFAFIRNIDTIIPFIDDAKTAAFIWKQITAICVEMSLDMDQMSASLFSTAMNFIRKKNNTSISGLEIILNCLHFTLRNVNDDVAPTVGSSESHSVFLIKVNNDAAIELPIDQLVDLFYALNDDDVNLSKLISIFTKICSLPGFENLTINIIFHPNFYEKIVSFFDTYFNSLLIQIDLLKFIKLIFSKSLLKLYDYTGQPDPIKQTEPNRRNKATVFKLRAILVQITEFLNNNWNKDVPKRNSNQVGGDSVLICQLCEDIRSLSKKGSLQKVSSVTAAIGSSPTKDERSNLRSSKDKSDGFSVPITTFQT

The first assay covers variants of B1. The conditions noted are these: with amn1_yeast AMN1, P38285.
In the case of MATPSTGANNSIPAVRNQVEVQVGLVGDAQVGKTSLMVKYVQNIYDKEYTQTLGVNFLKRKVSIRSTDIIFSIMDLGGQREFINMLPIATVGSSVIIFLFDLTRPETLSSIKEWYRQAYGLNDSAIPILVGTKYALLIDLDPEYQEQISRTSMKYAQVMNAPLIFCSTAKSINIQKIFKIALAKIFNLTLTIPEINEIGDPLLIYKHLGGQQHRHHNKSQDRKSHNIRKPSSSPSSKAPSPGVNT [D135A], the “effect of a mutation on the interaction” value was “disrupting interaction”. As to MATPSTGANNSIPAVRNQVEVQVGLVGDAQVGKASLMVKYVQNIYDKEYTQTLGVNFLKRKVSIRSTDIIFSIMDLGGQREFINMLPIATVGSSVIIFLFDLTRPETLSSIKEWYRQAYGLNDSAIPILVGTKYDLLIDLDPEYQEQISRTSMKYAQVMNAPLIFCSTAKSINIQKIFKIALAKIFNLTLTIPEINEIGDPLLIYKHLGGQQHRHHNKSQDRKSHNIRKPSSSPSSKAPSPGVNT [T34A], the “effect of a mutation on the interaction” value is given as “decreasing interaction”.

The next assay covers variants of B2. The conditions noted are these: with cdc15_yeast CDC15, P27636.
Take MATPSTGANNSIPAVRNQVEVQVGLVGDAQVGKTSLMVKYVQNIYDKEYTQTLGVNFLKRKVSIRSTDIIFSIMDLGGQREFINMLPIATVGSSVIIFLFDLTRPETLSSIKEWYRQAYGLNDSAIPILVGTKYALLIDLDPEYQEQISRTSMKYAQVMNAPLIFCSTAKSINIQKIFKIALAKIFNLTLTIPEINEIGDPLLIYKHLGGQQHRHHNKSQDRKSHNIRKPSSSPSSKAPSPGVNT [D135A]: the “effect of a mutation on the interaction” value is reported as “disrupting interaction”.

Take MATPSTGANNSIPAVRNQVEVQVGLVGDAQVGKASLMVKYVQNIYDKEYTQTLGVNFLKRKVSIRSTDIIFSIMDLGGQREFINMLPIATVGSSVIIFLFDLTRPETLSSIKEWYRQAYGLNDSAIPILVGTKYDLLIDLDPEYQEQISRTSMKYAQVMNAPLIFCSTAKSINIQKIFKIALAKIFNLTLTIPEINEIGDPLLIYKHLGGQQHRHHNKSQDRKSHNIRKPSSSPSSKAPSPGVNT [T34A]: the “effect of a mutation on the interaction” value is recorded as “disrupting interaction”.
